Data as given in patent publication US6660837B1, “Modified protein derived from protein kinase N” (Kirin Beer Kabushiki Kaisha, priority 1995, dated 2003).
Blank lines part the entries; values can stand above or below the molecule they belong to.

Tests used:
[1] = target: T1, in vitro translated PKNN2 (Homo sapiens, UniProt Q16512); experiment: In vitro binding of GST-HuActSkl fragments to PKNN2; conditions: resistant to 0.5% Triton X-100/0.5 M NaCl wash
T1 construct: made in house; host or cells: in vitro translation in rabbit reticulocyte lysate (Promega)
T1 sequence (Q16512 1-474): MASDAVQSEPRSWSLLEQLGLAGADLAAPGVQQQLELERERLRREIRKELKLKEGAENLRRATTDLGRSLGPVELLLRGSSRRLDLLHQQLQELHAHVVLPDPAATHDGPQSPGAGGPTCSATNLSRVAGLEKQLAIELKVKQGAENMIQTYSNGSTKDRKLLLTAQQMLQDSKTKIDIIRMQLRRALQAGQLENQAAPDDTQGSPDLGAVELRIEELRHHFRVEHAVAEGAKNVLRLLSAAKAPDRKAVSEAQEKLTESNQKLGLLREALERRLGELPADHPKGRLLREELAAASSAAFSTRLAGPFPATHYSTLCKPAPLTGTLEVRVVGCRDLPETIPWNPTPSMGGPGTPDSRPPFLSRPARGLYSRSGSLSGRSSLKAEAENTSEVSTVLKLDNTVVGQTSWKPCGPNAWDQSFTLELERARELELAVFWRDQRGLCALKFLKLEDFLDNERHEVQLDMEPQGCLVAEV
Protocol: In vitro transcription for the N-terminal region of PKN (the amino acid sequence 1-474, this region being designated as PKNN2 (Example 8)) was performed as described in Example 8. For in vitro translation, cRNAs were translated in rabbit reticulocyte lysate (Promega) in the presence of [^35S] methionine as described in Example 8.
For in vitro binding experiment, 2 μl of in vitro translated PKNN2 was mixed with 5 μg of each GST-α-actinin fusion protein or with 25 μg of GST alone in 400 μl of GST binding buffer (20 mM Tris/HCl at pH 7.5, 0.5 mM DTT, 150 mM NaCl, 0.05% Triton-X100, 1 mM EDTA, 1 μg/ml leupeptin) and incubated for 1 hr at 4° C. After addition of 25 μl of glutathione-Sepharose 4B pretreated with 10 mg/ml of E. coli extract to block nonspecific binding, the binding reaction was continued for additional 30 min at 4° C. The glutathione-Sepharose 4B was then washed four times in GST washing buffer (20 mM Tris/HCl at pH 7.5, 0.5 mM DTT, 1 mM EDTA, 1 μg/ml leupeptin) containing 0.5 M NaCl and 0.5% Triton X-100, and further washed with GST washing buffer. Bound proteins were eluted with GST elution buffer (100 mM Tris/HCl at pH 7.5, 10 mM glutathione, 120 mM NaCl, 1 mM EDTA, 0.5 mM DTT, 1 μg/ml leupeptin) and were subjected to SDS-PAGE. The binding was visualized and quantitated by an imaging analyzer (FUJI BAS1000).

[2] = target: T2, purified PKN from rat testis (Rattus norvegicus, UniProt Q63433); experiment: Phosphorylation of native NF by PKN; type: biochemical; conditions: native bovine NF, with arachidonic acid; estimated by image quant
T2 construct: The purified PKN (1 ng) from rat testis cytosol; from tissue; host or cells: rat testis (cytosol / soluble fraction)
T2 sequence (Q63433 whole entry): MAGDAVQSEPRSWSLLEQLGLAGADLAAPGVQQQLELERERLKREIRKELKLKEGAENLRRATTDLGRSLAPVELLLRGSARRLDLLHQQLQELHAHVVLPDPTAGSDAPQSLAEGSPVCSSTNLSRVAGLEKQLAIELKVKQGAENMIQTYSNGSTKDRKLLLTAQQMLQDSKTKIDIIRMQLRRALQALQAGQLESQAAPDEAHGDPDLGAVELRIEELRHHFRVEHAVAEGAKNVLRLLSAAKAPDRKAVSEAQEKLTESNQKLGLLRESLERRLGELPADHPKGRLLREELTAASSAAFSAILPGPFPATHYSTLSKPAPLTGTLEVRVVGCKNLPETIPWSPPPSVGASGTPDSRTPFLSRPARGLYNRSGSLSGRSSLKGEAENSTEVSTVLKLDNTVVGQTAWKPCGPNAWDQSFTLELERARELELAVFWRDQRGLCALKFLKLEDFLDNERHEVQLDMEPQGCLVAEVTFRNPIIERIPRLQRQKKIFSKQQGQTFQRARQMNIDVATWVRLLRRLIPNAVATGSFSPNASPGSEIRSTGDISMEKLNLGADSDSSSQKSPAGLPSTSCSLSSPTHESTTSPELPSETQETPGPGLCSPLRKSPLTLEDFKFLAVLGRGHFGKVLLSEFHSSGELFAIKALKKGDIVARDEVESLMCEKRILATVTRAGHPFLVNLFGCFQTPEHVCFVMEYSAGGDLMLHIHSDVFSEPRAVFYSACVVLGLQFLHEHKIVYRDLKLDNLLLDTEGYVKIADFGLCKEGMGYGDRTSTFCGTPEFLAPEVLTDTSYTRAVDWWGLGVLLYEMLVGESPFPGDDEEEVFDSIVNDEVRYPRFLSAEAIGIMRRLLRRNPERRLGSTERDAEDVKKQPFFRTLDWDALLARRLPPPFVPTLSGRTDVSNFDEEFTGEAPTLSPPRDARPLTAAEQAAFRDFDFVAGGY
Protocol: Native NFs were prepared from bovine spinal cords according to a method described in Hisanaga, S. & Hirokawa, N., J. Mol. Biol. 202, 297-305 (1988). Kinase assay was carried out according to the following method.
(§1) Soluble cytosolic extract of spinal cord or purified NF proteins were boiled for 5 min to destroy endogenous protein kinase activity prior to their use as phosphate acceptors. The phosphorylation of NF preparations was carried out at 30° C. in an assay mixture containing 20 mM Tris/HCl at pH 7.5, 8 mM MgCl2, 100 μM ATP, 185 kBq of [γ-^32P]ATP, each subunit of NF, 20 ng/ml of purified PKN from rat testis, and with/without 40 μM arachidonic acid as indicated in each experiment. Reactions were terminated after various times by the addition of an equal volume of Laemli's sample buffer, and separation was performed on 7% SDS-PAGE. The gels were dried under vacuum and exposure to BAS1000 bio-imaging analyzer. Dephosphorylation of NF proteins was conducted with calf intestine alkaline phosphatase according to a method described in Carden, M. J. et al., J. Biol. Chem. 260, 9805-9817 (1985) and terminated after boiling for 5 min.

PKN = target: T3, PKN (Rattus norvegicus, UniProt Q63433); experiment: Phosphorylation of recombinant GST-NF domains by PKN; type: biochemical; conditions: GST-head-rod domain of each NF subunit
T3 construct: The purified PKN (1 ng) from rat testis cytosol; from tissue; host or cells: rat testis (cytosol / soluble fraction)
T3 sequence (Q63433 whole entry, the tested form may be a part): as the sequence (Q63433 whole entry) above
Protocol: as §1
(2) Phosphorylation of Recombinant NF by PKN To identify the region containing the phosphorylation site of NF by PKN, GST-head-rod and -tail domain of each subunit of NFs were bacterially synthesized (Example 8), and subjected to in vitro phosphorylation assay in the same manner as described above. […] The GST-tail domain of each subunit was not labeled at all. PKN also phosphorylated the GST-head-rod domain of vimentin (data not shown).

RhoA^Val14 CLVL^− = target: T4, RhoA^Val14 CLVL^− (Homo sapiens, UniProt P61586, G14V); experiment: Yeast two-hybrid, truncated PKN with RhoA^Val14CLVL^−; type: binding; conditions: yeast L40
T4 construct: expressed in transfected cells; host or cells: yeast strain L40
T4 sequence (P61586 1-189 G14V): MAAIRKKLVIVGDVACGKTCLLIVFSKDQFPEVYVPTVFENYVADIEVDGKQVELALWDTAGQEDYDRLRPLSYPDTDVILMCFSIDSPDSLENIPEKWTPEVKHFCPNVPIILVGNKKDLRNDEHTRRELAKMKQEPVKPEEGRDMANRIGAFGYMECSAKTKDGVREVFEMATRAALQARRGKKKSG
Text: The cDNA fragments encoding various length of human PKN were inserted into the vector pBTM116 (Example 7) in frame with the upstream LexA DNA-binding domain sequences or the vector pVP16 (Example 7) in frame with the upstream VP16 transcription activation domain sequences. The cDNA fragments encoding human RhoA, RhoA^Val14, and RhoA^Ala37 were obtained by digesting pGEX-RhoA, pGEX-RhoA^Val14, and pGEX-RhoA^Ala37 (Example 1) with restriction enzymes, respectively, then cloned into pBTM116 and pVP16.
The expression plasmids were transfected into yeast L40 cells and plated on semi-solid media lacking tryptophan and leucine. Interaction was examined using a filter lift assay for the β-galactosidase activity in the same manner as in Example 6. […]

extent of maximal phosphorylation by PKN per mol subunit of protein [2]: about 1 mol/mol
relative 32P incorporation into GST-head-rod domain (ratio NFH:NFM:NFL) (PKN): 2
B6: NFL: neurofilament subunit L; native bovine in b342, GST-head-rod domain fusion in b344 (protein, UniProt P02548 2-555, looked up)
Neurofilament light …: SSFSYEPYYSTSYKRRYVETPRVHISSVRSGYSTARSAYSSYSAPVSSSLSVRRSYSSSSGSLMPSLESLDLSQVAAISNDLKSIRTQEKAQLQDLNDRFASFIERVHELEQQNKVLEAELLVLRQKHSEPSRFRALYEQEIRDLRLAAEDATNEKQALQGEREGLEETLRNLQARYEEEVLSREDAEGRLMEARKGADEAALARAELEKRIDSLMDEIAFLKKVHEEEIAELQAQIQYAQISVEMDVSSKPDLSAALKDIRAQYEKLAAKNMQNAEEWFKSRFTVLTESAAKNTDAVRAAKDEVSESRRLLKAKTLEIEACRGMNEALEKQLQELEDKQNADISAMQDTINKLENELRTTKSEMARYLKEYQDLLNVKMALDIEIAAYRKLLEGEETRLSFTSVGSLTTGYTQSSQVFGRSAYGGLQTSSYLMSARSFPSYYTSHVQEEQIEVEETIEAAKAEEAKDEPPSEGEAEEEEKEKEEAEAEAEAEAEAEAEEEEGAQEEEAAKEDAEEAKEEEGGEGEEAEETKEAEEEEKKDEGAGEEQATKKKD

binding of in vitro translated PKNN2 to the fragment [1]: strongly bound
B7: HuActSkl (423-653): human skeletal muscle type α-actinin fragment, GST fusion (protein)
chain: ILLQKDYESASLTEVRALLRKHEAFESDLAAHQDRVEQIAAIAQELNELDYHDAVNVNDRCQKICDQWDRLGTLTQKRREALERMEKLLETIDQLHLEFAKRAAPFNNWMEGAMEDLQDMFIVHSIEEIQSLITAHEQFKATLPEADGERQSIMAIQNEVEKVIQSYNIRISSSNPYSTVTMDELRTKWDKVKQLVPIRDQSLQEELARQHANERLRRQFAAQANAIGPWI
modifications: left off: a dimerising Fc or GST
notes: human skeletal muscle type α-actinin fragment, GST fusion

Continued, molecule first:

B1: HuActSkl (486-607): human skeletal muscle type α-actinin fragment, spectrin-like repeat 3, GST fusion (protein, UniProt P35609 486-607, looked up, fragment)
chain: ICDQWDRLGTLTQKRREALERMEKLLETIDQLHLEFAKRAAPFNNWMEGAMEDLQDMFIVHSIEEIQSLITAHEQFKATLPEADGERQSIMAIQNEVEKVIQSYNIRISSSNPYSTVTMDEL
modifications: GST fusion
notes: human skeletal muscle type α-actinin fragment, spectrin-like repeat 3, GST fusion
binding of in vitro translated PKNN2 to the fragment [1]: strongly bound

B2: HuActSkl (653-837): human skeletal muscle type α-actinin fragment, GST fusion (protein)
chain: IQNKMEEIARSSIQITGALEDQMNQLKQYEHNIINYKNNIDKLEGDHQLIQEALVFDNKHTNYTMEHIRVGWELLLTTIARTINEVETQILTRDAKGITQEQMNEFRASFNHFDRRKNGLMDHEDFRACLISMGYDLGEAEFARIMTLVDPNGQGTVTFQSFIDFMTRETADTDTAEQVIASFRI
modifications: left off: a dimerising Fc or GST
notes: as for B7
binding of in vitro translated PKNN2 to the fragment [1]: strongly bound

B3: NFM: neurofilament subunit M; native bovine in b342, GST-head-rod domain fusion in b344 (protein, UniProt O77788 2-926, looked up)
Neurofilament medium …: SYTLDSLGNPSAYRRVTETRSSFSRISGSPSSGFRSQSWSRGSPSTVSSSYKRSALAPRLTYSSAMLSSAESSLDFSQSSSLLDGGSGPGGDYKLSRSNEKEQIQGLNDRFAGYIEKVHYLEQQNKEIEAEIQALRQKQASHAQLGDAYDQEIRELRATLEMVNHEKAQVQLDSDHLEEDIHRLKERFEEEARLRDDTEAAIRALRKDIEESSLVKVELDKKVQSLQDEVAFLRSNHEEEVADLLAQIQASHITVERKDYLKTDISTALKEIRSQLESHSDQNMHQAEEWFKCRYAKLTEAAEQNKEAIRSAKEEIAEYRRQLQSKSIELESVRGTKESLERQLSDIEERHNHDLSSYQDTIQQLENELRGTKWEMARHLREYQDLLNVKMALDIEIAAYRKLLEGEETRFSTFAGSITGPLYTHRQPSIAISSKIQKTKVEAPKLKVQHKFVEEIIEETKVEDEKSEMEEALTAITEELAVSVKEEVKEEEAEEKEEKEEAEEEVVAAKKSPVKATAPELKEEEGEKEEEEGQEEEEEEEEAAKSDQAEEGGSEKEGSSEKEEGEQEEEGETEAEGEGEEAAAEAKEEKKMEEKAEEVAPKEELAAEAKVEKPEKAKSPVAKSPTTKSPTAKSPEAKSPEAKSPTAKSPTAKSPVAKSPTAKSPEAKSPEAKSPTAKSPTAKSPAAKSPAPKSPVEEVKPKAEAGAEKGEQKEKVEEEKKEAKESPKEEKAEKKEEKPKDVPEKKKAESPVKAESPVKEEVPAKPVKVSPEKEAKEEEKPQEKEKEKEKVEEVGGKEEGGLKESRKEDIAINGEVEGKEEEQETKEKGSGGEEEKGVVTNGLDVSPGDEKKGGDKSEEKVVVTKMVEKITSEGGDGATKYITKSVTVTQKVEEHEETFEEKLVSTKKVEKVTSHAIVKEVTQSD
extent of maximal phosphorylation by PKN per mol subunit of protein [2]: about 6 mol/mol
relative 32P incorporation into GST-head-rod domain (ratio NFH:NFM:NFL) (PKN): 10

B4: HuActSkl (604-719): human skeletal muscle type α-actinin fragment, GST fusion (protein)
chain: MDELRTKWDKVKQLVPIRDQSLQEELARQHANERLRRQFAAQANAIGPWIQNKMEEIARSSIQITGALEDQMNQLKQYEHNIINYKNNIDKLEGDHQLIQEALVFDNKHTNYTMEH
modifications: left off: a dimerising Fc or GST
notes: as for B7
binding of in vitro translated PKNN2 to the fragment [1]: not

B5: amino acid sequence 3-135: truncated human PKN, amino acid sequence 3-135 in SEQ ID NO: 1, two-hybrid fusion (protein, UniProt Q16512 3-135, looked up, fragment)
chain: SDAVQSEPRSWSLLEQLGLAGADLAAPGVQQQLELERERLRREIRKELKLKEGAENLRRATTDLGRSLGPVELLLRGSSRRLDLLHQQLQELHAHVVLPDPAATHDGPQSPGAGGPTCSATNLSRVAGLEKQL
modifications: two-hybrid fusion
interaction with RhoA^Val14 CLVL^− (β-galactosidase filter assay) (RhoA^Val14 CLVL^−): interacted
